# Laboratory results from patent US20180171024A1.
# Tests used:
# [1] = molecular target: HLA-A2 on unloaded T2 cells (human); experiment: flow cytometry, T2 cells
# [2] = molecular target: HLA-A2 on cells (tumor cell lines, normal primary cells, PBMCs) (human); experiment: flow cytometry, Caco2 cells
# [3] = molecular target: HLA-A2 on cells (tumor cell lines, normal primary cells, PBMCs) (human); experiment: flow cytometry, PBMCs #IB, 10 µg/ml
# [4] = molecular target: HLA-A2 on cells (tumor cell lines, normal primary cells, PBMCs) (human); experiment: flow cytometry, SKMEL5 cells
# [5] = molecular target: HLA-A2 on cells (tumor cell lines, normal primary cells, PBMCs) (human); experiment: flow cytometry, A375 melanoma cells, 10 µg/ml
# [6] = molecular target: HLA-A2/CMV on T2 cells (human); experiment: flow cytometry, T2 cells loaded with CMV peptide
# [7] = molecular target: HLA-A2 on cells (tumor cell lines, normal primary cells, PBMCs) (human); experiment: flow cytometry, 501A melanoma cells
# [8] = molecular target: HLA-A2 on cells (tumor cell lines, normal primary cells, PBMCs) (human); experiment: flow cytometry, MEWO melanoma cells
# [9] = molecular target: HLA-A2 on cells (tumor cell lines, normal primary cells, PBMCs) (human); experiment: flow cytometry, 'Umbryonic cells' #HUE-1, 10 µg/ml
# [10] = molecular target: HLA-A2 on cells (tumor cell lines, normal primary cells, PBMCs) (human); experiment: flow cytometry, cardiac myocytes #6200-2, 10 µg/ml
# [11] = molecular target: HLA-A2 on cells (tumor cell lines, normal primary cells, PBMCs) (human); experiment: flow cytometry, SET-2 cells, 10 µg/ml
# [12] = molecular target: HLA-A2 on cells (tumor cell lines, normal primary cells, PBMCs) (human); experiment: flow cytometry, ST486 cells, 10 µg/ml
# [13] = molecular target: HLA-A2 on cells (tumor cell lines, normal primary cells, PBMCs) (human); experiment: flow cytometry, KYSE-140 cells, 10 µg/ml
# [14] = molecular target: HLA-A2 on cells (tumor cell lines, normal primary cells, PBMCs) (human); experiment: flow cytometry, astrocytes 1840, 10 µg/ml
# [15] = molecular target: HLA-A2 on HLA-A2+ cells that do not express WT1 (tumor cell lines, normal primary cells); experiment: flow cytometry on A498 cells (WT1 mRNA -)
# [16] = molecular target: HLA-A2 on cells (tumor cell lines, normal primary cells, PBMCs) (human); experiment: flow cytometry, astrocytes #1800, 10 µg/ml
# [17] = molecular target: HLA-A2 on HLA-A2+/WT1+ SET2 cells (WT1 mRNA positive; WT1 126-134 peptide not detected by mass spectrometry of eluted HLA peptides); experiment: flow cytometry on SET-2 cells (WT1 mRNA +)
# [18] = molecular target: HLA-A2/KPNA1 on T2 cells (human); experiment: flow cytometry, T2 cells loaded with KPNA1 [..], 10 µg/ml
# [19] = molecular target: HLA-A2 on cells (tumor cell lines, normal primary cells, PBMCs) (human); experiment: flow cytometry, PANC-1 pancreatic carcinoma cells, 10 µg/ml
# [20] = molecular target: HLA-A2/TyrD-S13 on T2 cells (human); experiment: flow cytometry, T2 cells loaded with TyrD S13 [..], 10 µg/ml
# [21] = molecular target: HLA-A2/TyrD-S15 on T2 cells (human); experiment: flow cytometry, T2 cells loaded with TyrD S15 [..], 10 µg/ml
# [22] = molecular target: Unloaded T2 (Homo sapiens); experiment: flow cytometry, unloaded T2 cells, PE anti-mouse
# [23] = molecular target: HLA-A2/Tyrosinase369-377 complex on cells (human); experiment: flow cytometry, T2 cells loaded with 10^-4 M peptide
# P68 … (Homo sapiens) = experiment: as above
# [24] = molecular target: HLA-A2 on cells (tumor cell lines, normal primary cells, PBMCs) (human); experiment: flow cytometry, renal epithelial cells 4100-2, 10 µg/ml
# [25] = molecular target: HLA-A2/Tyrosinase369-377 complex on cells (human); experiment: flow cytometry, T2 cells loaded with TyrD [..], 10 µg/ml
# [26] = molecular target: HLA-A2 on cells (tumor cell lines, normal primary cells, PBMCs) (human); experiment: flow cytometry, colonic smooth muscle cells 2940, 10 µg/ml
# [27] = molecular target: HLA-A2 on cells (tumor cell lines, normal primary cells, PBMCs) (human); experiment: flow cytometry, colonic smooth muscle cells #2940, 10 µg/ml
# [28] = molecular target: HLA-A2/TyrD-S5 on T2 cells (human); experiment: flow cytometry, T2 cells loaded with TyrD S5 [..], 10 µg/ml
# [29] = molecular target: HLA-A2/KIAA0355 on T2 cells (human); experiment: flow cytometry, T2 cells loaded with KIAA0335 [..], 10 µg/ml
# [30] = molecular target: HLA-A2/TyrD-S10 on T2 cells (human); experiment: flow cytometry, T2 cells loaded with TyrD S10 [..], 10 µg/ml
# [31] = molecular target: HLA-A2/TyrD-S12 on T2 cells (human); experiment: flow cytometry, T2 cells loaded with TyrD S12 [..], 10 µg/ml
# [32] = molecular target: HLA-A2/WT1 126-134 complex on T2 cells (human); experiment: flow cytometry, peptide-loaded T2 cells (10^-4-10^-5 M), PE anti-mouse
# [33] = molecular target: HLA-A2/WT1-S10 on T2 cells (human); experiment: as above
# [34] = molecular target: HLA-A2/WT1-S11 on T2 cells (human); experiment: as above
# [35] = molecular target: HLA-A2/WT1-S3 on T2 cells (human); experiment: as above
# [36] = molecular target: HLA-A2/WT1-S5 on T2 cells (human); experiment: as above
# [37] = molecular target: HLA-A2/WT1-S6 on T2 cells (human); experiment: as above
substance,measurement,setting,value
BB7.2 (antibody),GeoMean,[1],1380
same,GeoMean,[2],123
same,MFI,[3],552
same,GeoMean,[4],281
same,MFI,[5],196
same,MFI,[6],2400
same,MFI,[7],389
same,MFI,[8],76
same,MFI,[9],553
same,MFI,[10],733
same,MFI,[11],274
same,MFI,[12],681
same,MFI,[13],36.1
same,MFI,[14],569
same,MFI,[15],350
same,MFI,[16],751
same,MFI,[17],890
same,MFI relative to background,[18],729
same,MFI,[19],242
same,MFI relative to background,[20],749
same,MFI relative to background,[21],642
same,MFI,[22],1050
same,MFI,[23],471
same,MFI,P68 … (Homo sapiens),542
same,MFI,[24],564
same,MFI relative to background,[25],430
same,MFI,[26],563
same,MFI,[27],744
same,MFI relative to background,[28],546
same,MFI relative to background,[29],714
same,MFI relative to background,[30],620
same,MFI relative to background,[31],532
same,MFI,[32],2260
same,MFI,[33],1350
same,MFI,[34],1670
same,MFI,[35],1410
same,MFI,[36],1080
same,MFI,[37],1670
